# In patent publication EP4368203A1 (Wuhan Neurophth Biotechnology Limited Company, dated 2024):
# B1: anti-VEGF Fab expressed by the MDR6 plasmid (culture supernatant of transfected cells) (Fab, V domains shown)
# VH: EVQLVESGGGLVQPGGSLRLSCAASGYDFTHYGMNWVRQAPGKGLEWVGWINTYTGEPTYAADFKRRFTFSLDTSKSTAYLQMNSLRAEDTAVYYCAKYPYYYGTSHWYFDVWGQGTLVTVSS
# VL: DIQLTQSPSSLSASVGDRVTITCSASQDISNYLNWYQQKPGKAPKVLIYFTSSLHSGVPSRFSGSGSGTDFTLTISSLQPEDFATYYCQQYSTVPWTFGQGTKVEIKR
# notes: also called M6
# Biological target: T1, rat VEGF (in rat serum) (rat, UniProt P16612-2 27-190, limits assumed)
# T1 construct: also called VEGF in rat serum samples
# T1 sequence (looked up): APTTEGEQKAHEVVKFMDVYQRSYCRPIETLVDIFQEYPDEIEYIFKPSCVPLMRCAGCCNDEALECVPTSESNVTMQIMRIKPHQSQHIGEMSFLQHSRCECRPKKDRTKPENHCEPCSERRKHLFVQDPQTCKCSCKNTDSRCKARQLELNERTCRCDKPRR
# Assay: Western blot, cell supernatant as primary antibody
binder,measurement,value
B1,binding result,no binding (tested: 5 ug of rat serum)
